Source: the supplement of paper PMC9170038

Test system: MS2 coat protein
Assay: apparent KD of MS2 coat protein; designed switch direction (-1 OFF switch, 1 ON switch): 1; higher = weaker reporter binding
Procedure, shortened: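 Each step of the titration lasted 0.8–1.5 h at the lowest concentration and 10–20 min at the highest. The protein, SNAP-549-labelled MS2 coat protein, went from 0.7 or 1.5 nM doubling to 3 µM over RNA switches transcribed on Illumina chips by stalled E. coli RNA polymerase. Normalised cluster fluorescence was curve-fitted, and the per-design median over clusters is given as apparent KD.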

[1] = input ligand: microRNA oligo, concentration not stated
[2] = Eterna round: R95, input ligand: FMN 200 uM
[3] = Eterna round: R95, input ligand: microRNA oligo, concentration not stated
[4] = Eterna round: R95, input ligand: none

Sequence	apparent KD of MS2 coat protein [1] [nM]	apparent KD of MS2 coat protein [2] [nM]	apparent KD of MS2 coat protein [3] [nM]	apparent KD of MS2 coat protein [4] [nM]	apparent KD of MS2 coat protein (input ligand: FMN 200 uM) [nM]	apparent KD of MS2 coat protein (input ligand: none) [nM]
GGAUGAUAGACAGGAUAUUGAUUGUAAUUAUGUCAAGAAGGGUCUUUGAUUUAAACGACCAGUUACAUGAGGAUCACCCAUGUU [JR_SSNG1_Sub029] (Eterna round: R96, puzzle: Same State NG 1)	24.1					
GGAUGAUUAAUAGGAUAUUAGUUGUAAAAUGUUUAAGAAGGAUUAAUGAUUUAAACGACCAGUUACAUGAGGAUCACCCAUGUU [JR_SSNG1_Sub093] (Eterna round: R96, puzzle: Same State NG 1)	20.6					
GGCACAAAAGCACAGGAUAUGCAAAAGAACACAUGAGGAUCACCCAUGUAGCCUAAUAAAGGGCAGCAGAAGGGUGGGACUGCCA [Quaat] (puzzle: Same State 2)		74.5	239	239		
GGCAUGCGGCGUACCGUAUGCUGGUAUGUACAUGAGGAUCACCCAUGUCAUGUACAGGCUUGUUGCUCGUCUUAUUG [JL-shm-2.41 JL mod] (puzzle: Sensor for hsa-mir-208a)		137	34.3	158		
GGCGAAUAAACAUGAGGAUCACCCAUGUAGCGGAGACGCAAUGAGGAUAUCGAUGGGUUUCCCGUCGAGAAGGCAUGGGUCGCC [JL SSNG3 3.93 mod 1] (Eterna round: R96, puzzle: Same State NG 3)	99.6				20.8	140
GGCUAGCCUCAAGGAUAUACGCUCUCAACAAAGAACCGACUACAUGAGGAUCACCCAUGUACCAUGUAGAAGGUGAGGUUAGCC [Eternabot solution 4] (Eterna round: R96, puzzle: Same State NG 2)	397					
GGGAGAGACGUAGGAUAUGGAAGAAGAUAGAGACUAGAAGGGUGAACAUGAGAAUCGAAGUGUAAAGUGAGAUGAGGUGGGAGA [iteri-1] (Eterna round: R96, puzzle: Same State NG 1)	16.9				26.5	36.9
GGGCAGAGGGACAAGGAUAUGUCAGGAGAGACAUGAGGAUCACCCAUGUGGAGGUUGGAGCAGAGACAGAAGGUGUACGGAGCGA [JR_SS2_Sub011] (puzzle: Same State 2)		34.4	105	107		
GGGUAGAUUUGAGGAUAUCCUUAACCAACAUGAGGAUCACCCAUGUCCAAAAGAGUUCAUUUACCGGAGAAGGCAGAUGCACCC [Eternabot solution 50] (Eterna round: R96, puzzle: Same State NG 2)	61.4				74.7	86.4
GGUAAGAAUUAAGGAUAUUGAUUACAUAUGUUUAACAUGAGGAUCACCCAUGUGGGUUGCGGUAUCGAGAAGGUAAAAUAAUAG [Mat - same State NG 2 - JL mod - D83] (Eterna round: R96, puzzle: Same State NG 2)	170				145	170
GGUACAGUUACAGGAUAUGCUAUCCUUUGGGUAGCAGAAGGGUGGUAACAUGAGGAUCACCCAUGUGUGCCAGGGCGUGAGCCC [JL SSNG1 1.99] (Eterna round: R96, puzzle: Same State NG 1)	387				502	700
GGUACAUGAGGAUCACCCAUGUCAAAGGCACCGUGCAGACUGGAGGAUAUCACAGCAGAAAGCUGUGAGAAGGCCGUGUAAGCG [Eternabot solution 17] (Eterna round: R96, puzzle: Same State NG 3)	24.6				17.4	42.9
GGUAGGUUACUACCAAACAUGAGGAUCACCCAUGUAAAUGGGAAGGAUAUGGUACCUAUUUGGUACCAGAAGGUCCAAUUAAUU [JL Fiskers NG3ss - 2 mod 2] (Eterna round: R96, puzzle: Same State NG 3)	1720				670	4550
GGUAGGUUACUACCAAACAUGAGGAUCACCCAUGUAAGUGGGAAGGAUAUGGUACCGUUUCGGUACCAGAAGGUCCAUAUAGUA [JL Fiskers NG3ss - 2 mod 11] (Eterna round: R96, puzzle: Same State NG 3)	658				232	1530
GGUAGGUUACUACCAAACAUGAGGAUCACCCAUGUAAGUGGGAAGGAUAUGGUACCUAAAAGGUACCAGAAGGUCCAAUUAAUU [Mat - Same State NG 3 - JL Mod - D98] (Eterna round: R96, puzzle: Same State NG 3)	436				188	584
GGUAUCGGCACAGGAUAUGCUAUCCUUUGGGUAGCAGAAGGGUGGAACAUGAGGAUCACCCAUGUGGUGCCAGGGCGUGAGCCC [JL SSNG1 1.88] (Eterna round: R96, puzzle: Same State NG 1)	125				586	909
GGUAUGGACACAGGAUAUGCUUACGAAACGUAAGCAGAAGGGUGAACAUGAGGAUCACCCAUGUACGUACCAGGGCGUGAGCCC [JL SSNG1 1.76] (Eterna round: R96, puzzle: Same State NG 1)	157				440	92.4
GGUCCAGCCUGAGCUGGACAAAAGCAUGUACAUGAGGAUCACCCAUGUUCAUGUACAAGCUUUUUGCUCGUCUUAUC [salish99_208a_r3_056] (puzzle: Sensor for hsa-mir-208a)		431	14.6	664		
GGUCCAGCCUGAGCUGGACCGAAGCAUGUACAUGAGGAUCACCCAUGUCAUGUACAGGCUUUUUGCUCGUCUUAUUG [JL-shm-2.12 JL Mod] (puzzle: Sensor for hsa-mir-208a)		685	15.7	694		
GGUCGGACUCACAUGAGGAUCACCCAUGUUCCGGAAACGGGACAGGAUAUCUGUCCGAAAAGGUCAGAGAAGGGUCUACCGACC [Fiskers NG3ss - 54] (Eterna round: R96, puzzle: Same State NG 3)	126				353	289
GGUCGGACUCACAUGAGGAUCACCCAUGUUGCGGAAACGCCACAGGAUAUCUGUCCGAAAAGGUCAGAGAAGGGUGAACCGACC [Fiskers NG3ss - 63] (Eterna round: R96, puzzle: Same State NG 3)	35.8				1460	214
GGUGCCAAUAAAGCCUACAUGAGGAUCACCCAUGUAUGUAGGCAGGAUAUCGUUUGCUUUGCAAACGAGAAGGGCCGAGGCACC [JL SSNG3 1.19] (Eterna round: R96, puzzle: Same State NG 3)	25.1				20.4	42.7
GUAAAACAUGAGGAUCACCCAUGUAAUAAUAUGGGAGGAUAUCAGAUUUAAUUUAAUUUAUGAGAAGGCCUAAAGU [Mat - Same State 1 - Mod of Eli - D63] (puzzle: Same State 1)		94.4	16.4	628		
GUAAAACAUGAGGAUCACCCAUGUCAACAAAGUCGAGGAUAUGGGCAAAUAAAAUAAGAACCAGAAGGCGAAUAAC [salish99_SS1_r3_010] (puzzle: Same State 1)		45.8	377	371		
GUAAAGAAAUAAGGAUAUUGAAUACAUAUGUUUAACAUGAGGAUCACCCAUGUGGGUUGCGGUAUCGAGAAGGUAUAAUAAAAG [Mat - Same State NG 2 - JL mod - D8] (Eterna round: R96, puzzle: Same State NG 2)	171				162	168
GUAACAUGACGAGGAUAUGGAACAUGAGGAUCACCCAUGUAUGUUCCAUAACGCGAAUGACGAAUCCAGAAGGCGUCGUGAAUG [Mat - Same State NG 2 - JL mod - D29] (Eterna round: R96, puzzle: Same State NG 2)	124				41.7	220
GUAAUACAUGAGGAUCACCCAUGUCAAUGUAGUCGAGGAUAUGGGUAGCUAUGUGGCUUACUAGAAGGCGACGAGC [Same State 1 - Mod of Vinnie Teenbexe v.4] (puzzle: Same State 1)		90.3	157	251		
